For 4 molecules, koff and Kd results are on record in paper PMC7725785 (2020).

Experiment in all cases: SPR
(SPR reads the build-up and loss of mass on a sensor chip optically.)

For experiment [1], the target named is T1, GST-tagged TRIB3 (human, UniProt Q96RU7 1-358).
T1 chain: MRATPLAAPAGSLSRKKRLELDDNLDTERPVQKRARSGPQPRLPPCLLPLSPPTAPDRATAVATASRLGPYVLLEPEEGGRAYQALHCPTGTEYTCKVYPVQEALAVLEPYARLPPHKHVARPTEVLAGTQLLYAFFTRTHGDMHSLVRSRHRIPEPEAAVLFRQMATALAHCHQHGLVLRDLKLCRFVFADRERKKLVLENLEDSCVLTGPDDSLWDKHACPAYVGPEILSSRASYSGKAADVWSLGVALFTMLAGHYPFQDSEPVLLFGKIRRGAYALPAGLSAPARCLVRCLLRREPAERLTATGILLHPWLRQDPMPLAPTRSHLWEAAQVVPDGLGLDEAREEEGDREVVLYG

The target of experiment [2] is T1, GST-tagged TRIB3.
Experiment [3] deals with T2, MAX protein (SPR) (human, UniProt P61244 1-160).
The target of experiment [4] is T2, MAX protein (SPR). This is another data set of the same source.
Experiment [5] deals with T1, GST-tagged TRIB3.

Like-named read-outs stand apart in the source and are kept apart here. Where no end group is shown, it is not given here. [ ]: non-standard residue; d: D form.

T2 sequence (P61244 whole entry): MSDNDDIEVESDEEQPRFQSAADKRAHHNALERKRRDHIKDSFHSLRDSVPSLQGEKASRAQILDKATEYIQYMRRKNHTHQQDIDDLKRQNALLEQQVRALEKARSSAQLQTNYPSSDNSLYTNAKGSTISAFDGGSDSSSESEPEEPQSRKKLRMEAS

[dQ][dA][dE][dE][dQ][dK][dL][dI][dS][dE][dE][dD][dL][dL][dR] [CM3 peptide]: the koff (in general, a measure of how fast the partners let go of each other) with GST-tagged TRIB3 [1] was 0.000434 s⁻¹. Besides, binding in the experiment with GST-tagged TRIB3 [2] was put at a Kd of 0.707 µM.
In the same order, the values of [dK][dV][dV][dI][dL][dK][dK][dA][dT][dA][dY][dI][dL][dS][dV] [CM2 peptide] are 0.0166 s⁻¹ and 8.17 µM.
For [dE][dR][dQ][dR][dR][dN][dE][dL][dK][dR][dS][dF][dF][dA][dL][dR] [CM1 peptide], the koff in the experiment with GST-tagged TRIB3 [1] is 0.00531 s⁻¹; with MAX protein (SPR) [3], 0.0099 s⁻¹. Moreover, the Kd (commonly the free concentration of one partner at which half of the binding sites on the other are occupied at equilibrium, for simple one-to-one binding) with GST-tagged TRIB3 [2] is 3.4 µM; in the experiment with MAX protein (SPR) [4], 0.897 µM.
As for [dK][dR][dR][dE][dQ][dL][dK][dH][dK][dL][dE][dQ][dL][dR] [CM4 peptide], the results for the koff with GST-tagged TRIB3 [5] and in the experiment with MAX protein (SPR) [3] were 0.0769 s⁻¹ and 0.0417 s⁻¹, respectively. The molecule also gave a Kd with MAX protein (SPR) [4] of 12.8 µM.
